Patent US20080153132

Target: prothrombin, P00734

B1: genetic recombinant ecarin (protein)
chain: IILGSGNVNDYEVVYPQKVTALPKGAVQQPEQKYEDAMQYEFEVKGEPVVLHLEKNKELFSEDYSETHYSSDDREITTNPSVEDHCYYHGRIQNDAESTASISACNGLKGHFKLRGETYFIEPLKIPDSEAHAVYKYENIENEDEAPKMCGVTQDNWESDEPIKKTLGLIVPPHERKFEKKFIELVVVVDHSMVTKYNNDSTAIRTWIYEMLNTVNEIYLPFNIRVALVGLEFWCNGDLINVTSTADDTLHSFGEWRASDLLNRKRHDHAQLLTNVTLDHSTLGITFVYGMCKSDRSVELILDYSNITFNMAYIIAHEMGHSLGMLHDTKFCTCGAKPCIMFGKESIPPPKEFSSCSYDQYNKYLLKYNPKCILDPPLRKDIASPAVCGNEIWEEGEECDCGSPADCRNPCCDAATCKLKPGAECGNGECCDKCKIRKAGTECRPARDDCDVAEHCTGQSAECPRNEFQRNGQPCLNNSGYCYNGDCPIMLNQCIALFSPSATVAQDSCFQRNLQGSYYGYCTKEIGYYGKRFPCAPQDVKCGRLYCLDNSFKKNMRCKNDYSYADENKGIVEPGTKCEDGKVCINRKCVDVNTAY
  N-terminal amino acid sequence of the thrombin B chain after activation: the recombinant ecarin obtained according to the present invention specifically cleaves the peptide bond at the Arg-Ile site in prothrombin like snake venom derived ecarin
  activity to cleave S-2238 (thrombin enzymatic activity after 16 hours at 37 C with 2 U/mL recombinant ecarin): the activity to cleave S-2238 was detected in prothrombin when added with the recombinant ecarin
